Columns and labels:
[1] = biological target: T1, IL-18R on HEK-Blue IL18R reporter cells (UniProt Q13478 19-541; O95256 20-599); assay: cell-based or functional assay
T1 sequence (looked up) 1: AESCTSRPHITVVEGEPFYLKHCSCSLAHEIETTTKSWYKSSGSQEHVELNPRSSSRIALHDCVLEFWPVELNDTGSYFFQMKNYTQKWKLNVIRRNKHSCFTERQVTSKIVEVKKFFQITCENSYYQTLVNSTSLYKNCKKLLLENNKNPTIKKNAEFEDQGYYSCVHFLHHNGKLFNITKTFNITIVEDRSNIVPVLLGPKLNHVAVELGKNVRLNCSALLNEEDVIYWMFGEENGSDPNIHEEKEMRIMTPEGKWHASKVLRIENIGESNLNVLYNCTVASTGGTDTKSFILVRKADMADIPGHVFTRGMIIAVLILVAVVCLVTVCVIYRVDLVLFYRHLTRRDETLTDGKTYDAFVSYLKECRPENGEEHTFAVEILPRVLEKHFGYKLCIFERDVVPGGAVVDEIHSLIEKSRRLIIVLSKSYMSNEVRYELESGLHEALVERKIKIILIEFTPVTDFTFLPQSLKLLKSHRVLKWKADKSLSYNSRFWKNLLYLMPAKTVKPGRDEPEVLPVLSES
T1 sequence (looked up) 2: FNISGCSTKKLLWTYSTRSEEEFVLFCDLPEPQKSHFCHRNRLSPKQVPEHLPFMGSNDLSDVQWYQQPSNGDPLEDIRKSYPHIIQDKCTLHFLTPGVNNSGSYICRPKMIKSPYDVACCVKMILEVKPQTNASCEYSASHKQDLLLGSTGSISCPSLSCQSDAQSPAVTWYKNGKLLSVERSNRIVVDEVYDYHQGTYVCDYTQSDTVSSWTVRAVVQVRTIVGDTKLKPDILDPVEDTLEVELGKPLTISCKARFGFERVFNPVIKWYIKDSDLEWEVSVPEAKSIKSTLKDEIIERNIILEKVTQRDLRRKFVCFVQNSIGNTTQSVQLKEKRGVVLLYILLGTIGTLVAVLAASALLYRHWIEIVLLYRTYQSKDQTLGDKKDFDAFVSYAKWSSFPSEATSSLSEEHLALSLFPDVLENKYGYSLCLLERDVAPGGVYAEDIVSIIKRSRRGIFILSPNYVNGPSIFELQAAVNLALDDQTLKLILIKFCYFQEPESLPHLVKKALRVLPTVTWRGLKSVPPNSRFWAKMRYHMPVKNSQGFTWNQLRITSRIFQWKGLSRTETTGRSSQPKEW

[2] = biological target: T2, Biotinylated Recombinant Human PD-1/CD279-Fc Chimera (human, UniProt Q15116 25-167, biotinylated); assay: ELISA; antibody coated, biotinylated human PD-1-Fc titrated
T2 construct: Bought (Biolegend #789406); also called recombinant biotinylated human PD-1
Method: (§1) The interaction of the unmodified antibodies and corresponding IL-18 immunocytokines with relevant immune cell associated antigen are measured by ELISA assay. For these studies, Corning high-binding half-area plates (Fisher Scientific, Reinach, Switzerland) are coated overnight at 4° C. with 25 μl of unmodified antibodies corresponding IL-18 immunocytokines at 5 μg/ml in PBS. Plates are then washed four times with 100 μl of PBS-0.02% Tween20. Plate surfaces are blocked with 25 μl of PBS-0.02% Tween20-1% BSA at 37° C. during 1h. […] Plates are then washed four times with 100 μl of PBS-0.02% Tween20. Twenty-five microliters of Streptavidin-Horseradish peroxidase (#RABHRP3, Merck, Buchs, Switzerland) diluted at 1:500 into PBS-0.02%Tween20-0.1% BSA are added to each well and incubated at Room Temperature during 30 min. Plates are then washed four times with 100 μl of PBS-0.02% Tween20. Fifty microliters of TMB substrate reagent (#CL07, Merck, Buchs, Switzerland) are added to each well and incubated at 37° C. during 5 min. After 5 min at 37° C., Horseradish peroxidase reaction is stopped by adding 50 μl/well of 0.5M H2SO₄ stop solution. ELISA signal is then measured at 450 nm on an ENSPIRE® plate reader from Perkin Elmer (Schwerzenbach, Switzerland).

[3] = biological target: T3, recombinant biotinylated human FcRn (human, UniProt P55899 24-297; P61769 21-119, limits assumed, biotinylated); assay: AlphaLISA competition at pH 6; competitor human IgG acceptor beads
T3 construct: Kit reagent; also called human neonatal Fc receptor
Method: The interaction of the unmodified and of conjugated anti-PD1 antibodies with the human neonatal Fc receptor (FcRn) at pH 6 was measured using the AlphaLISA® Human FcRn Binding Kit (AL3095C) from Perkin Elmer (Schwerzenbach, Switzerland).
After 90 min at 23° C. in the dark, AlphaLISA® signal was measured on an EnSpire plate reader (Excitation at 680 nm, Emission at 615 nm) from Perkin Elmer (Schwerzenbach, Switzerland).

[4] = biological target: T2, Biotinylated Recombinant Human …; assay: ELISA: fusion immunocytokine coated on the plate (5 µg/ml), biotinylated human PD-1-Fc titrated (x-axis, Concentration (nM)), streptavidin-HRP/TMB, 450 nm
Method: as §1

[5] = biological target: T3, recombinant biotinylated human FcRn; assay: AlphaLISA competition at pH 6: test molecule titrated against human IgG acceptor beads for biotinylated human FcRn on streptavidin donor beads; normalized signal

IL-18R Hek Blue assay EC50 [1]: > 200 pM
Kd [2]: 38.9 pM
Kd [3]: 12500 pM
EC50 (read off the curve) [4]: ~30 pM
IC50 (read off the curve) [5]: ~10000 pM
B1: CMP2001 (other)
heavy 1: QVQLVQSGAEVKKPGASVKVSCKASGYTFTSYYMYWVRQAPGQGLEWMGGVNPSNGGTNFNEKFKSRVTITADKSTSTAYMELSSLRSEDTAVYYCARRDYRYDMGFDYWGQGTTVTVSSASTKGPSVFPLAPCSRSTSESTAALGCLVKDYFPEPVTVSWNSGALTSGVHTFPAVLQSSGLYSLSSVVTVPSSSLGTKTYTCNVDHKPSNTKVDKRVESKYGPPCPPCPAPEFLGGPSVFLFPPKPKDTLMISRTPEVTCVVVDVSQEDPEVQFNWYVDGVEVHNAKTKPREEQFNSTYRVVSVLTVLHQDWLNGKEYKCKVSNKGLPSSIEKTISKAKGQPREPQVYTLPPSQEEMTKNQVSLWCLVKGFYPSDIAVEWESNGQPENNYKTTPPVLDSDGSFFLYSRLTVDKSRWQEGNVFSCSVMHEALHNRFTQKSLSLSLGK
heavy 2: QVQLVQSGAEVKKPGASVKVSCKASGYTFTSYYMYWVRQAPGQGLEWMGGVNPSNGGTNFNEKFKSRVTITADKSTSTAYMELSSLRSEDTAVYYCARRDYRYDMGFDYWGQGTTVTVSSASTKGPSVFPLAPCSRSTSESTAALGCLVKDYFPEPVTVSWNSGALTSGVHTFPAVLQSSGLYSLSSVVTVPSSSLGTKTYTCNVDHKPSNTKVDKRVESKYGPPCPPCPAPEFLGGPSVFLFPPKPKDTLMISRTPEVTCVVVDVSQEDPEVQFNWYVDGVEVHNAKTKPREEQFNSTYRVVSVLTVLHQDWLNGKEYKCKVSNKGLPSSIEKTISKAKGQPREPQVYTLPPSQEEMTKNQVSLSCAVKGFYPSDIAVEWESNGQPENNYKTTPPVLDSDGSFFLVSRLTVDKSRWQEGNVFSCSVMHEALHNHYTQKSLSLSLGKGGGGSGGGGSGGGGSYFGKLKSKLSIIRNLNDQVLFIDQGNRPLFEDMTDSDARDNAPRTIFIISMYADSQPRGMAVAISVKCEKISTLSAENKIISFKEMNPPDNIKDTKSDIIFFQRSVPGHDNKMQFESSSYEGYFLAAEKERDLFKLILKKEDELGDRSIMFTVQNED
light: EIVLTQSPATLSLSPGERATISCRASKGVSTSGYSYLHWYQQKPGQAPRLLIYLASYLESGVPARFSGSGSGTDFTLTISSLEPEDFATYYCQHSRELPLTFGTGTKVEIKRTVAAPSVFIFPPSDEQLKSGTASVVCLLNNFYPREAKVQWKVDNALQSGNSQESVTEQDSKDSTYSLSSTLTLSKADYEKHKVYACEVTHQGLSSPVTKSFNRGEC
notes: expressed in CHO K1 cells

Reference: patent publication US20250188166A1 (BRIGHT PEAK THERAPEUTICS, published 2025)
